In paper PMC5805389 (Biochemistry, 2016):
Residue numbers refer to the chain shown, from its start. Names may count otherwise.

B1: human DJ-1, wild type (natural protein)
chain: GSHMASKRALVILAKGAEEMETVIPVDVMRRAGIKVTVAGLAGKDPVQCSRDVVICPDASLEDAKKEGPYDVVVLPGGNLGAQNLSESAAVKEILKEQENRKGLIAAICAGPTALLAHEIGFGSKVTTHPLAKDKMMNGGHYTYSENRVEKDGLILTSRGPGTSFEFALAIVEALNGKEVAAQVKAPLVLKD
B2: human DJ-1 D24N (natural protein)
chain: B1 chain with D27N

Target: the molecule itself
Experiment: crystal structure

Protein | stoichiometry N | binding result
B1 | 2 | –
B2 | – | binds
